# Assay results: US10836815B2, “Generation and comparative kinetic analysis of new glycosynthase mutants from Streptococcus pyogenes endoglycosidases for antibody glycoengineering” (UNIVERSITY OF MARYLAND, COLLEGE PARK, priority 2017, dated 2020)
# Changes are numbered by the printed parent chain. Numbers in names are those of the source. Entries after “also recorded” stand apart in the source; their conditions may differ.
# B1: Endo-S D233M (protein)
# chain: MDKHLLVKRTLGCVCAATLMGAALATHHDSLNTVKAEEKTVQVQKGLPSIDSLHYLSENSKKEFKEELSKAGQESQKVKEILAKAQQADKQAQELAKMKIPEKIPMKPLHGPLYGGYFRTWHDKTSDPTEKDKVNSMGELPKEVDLAFIFHDWTKDYSLFWKELATKHVPKLNKQGTRVIRTIPWRFLAGGDNSGIAEDTSKYPNTPEGNKALAKAIVDEYVYKYNLDGLDVMVEHDSIPKVDKKEDTAGVERSIQVFEEIGKLIGPKGVDKSRLFIMDSTYMADKNPLIERGAPYINLLLVQVYGSQGEKGGWEPVSNRPEKTMEERWQGYSKYIRPEQYMIGFSFYEENAQEGNLWYDINSRKDEDKANGINTDITGTRAERYARWQPKTGGVKGGIFSYAIDRDGVAHQPKKYAKQKEFKDATDNIFHSDYSVSKALKTVMLKDKSYDLIDEKDFPDKALREAVMAQVGTRKGDLERFNGTLRLDNPAIQSLEGLNKFKKLAQLDLIGLSRITKLDRSVLPANMKPGKDTLETVLETYKKDNKEEPATIPPVSLKVSGLTGLKELDLSGFDRETLAGLDAATLTSLEKVDISGNKLDLAPGTENRQIFDTMLSTISNHVGSNEQTVKFDKQKPTGHYPDTYGKTSLRLPVANEKVDLQSQLLFGTVTNQGTLINSEADYKAYQNHKIAGRSFVDSNYHYNNFKVSYENYTVKVTDSTLGTTTDKTLATDKEETYKVDFFSPADKTKAVHTAKVIVGDEKTMMVNLAEGATVIGGSADPVNARKVFDGQLGSETDNISLGWDSKQSIIFKLKEDGLIKHWRFFNDSARNPETTNKPIQEASLQIFNIKDYNLDNLLENPNKFDDEKYWITVDTYSAQGERATAFSNTLNNITSKYWRVVFDTKGDRYSSPVVPELQILGYPLPNADTIMKTVTTAKELSQQKDKFSQKMLDELKIKEMALETSLNSKIFDVTAINANAGVLKDCIEKRQLLKK
# B2: Endo-S D233A (protein)
# chain: B1 chain with M233A
# B3: Endo-S D233Q (protein)
# chain: B1 chain with M233Q
# Assays:
# Type in all cases: biochemical
# deglycosylated rituximab [1] = assay: Kinetic measurements (KM, Vmax) of Endo-S/Endo-S2 mutants for deglycosylated rituximab
# Excerpt: (§1) Peptide-N-Glycosidase F (PNGase F) treated rituximab was used as the internal standard due to its similarities to the deglycosylated and transferred product in terms of their molecular structures and ionization efficiencies. After PNGase F treatment, a mutation will be introduced into the amino acid sequence of rituximab so the product antibody will not interfere with the reaction via re-glycosylation^35. A standard product S2G2F-rituximab was synthesized following the previously reported procedure^29. […] Serial dilutions containing a gradient of S2G2F-rituximab (0, 0.25, 0.5, 0.75, 1.0, 1.25 and 1.5 μM) were mixed with a stock solution containing 0.67 μM internal standard. These mixed sample solutions were quantified by selected ion monitoring (SIM) to calculate the single-point normalization factor^31. The factor could then be used to calculate the relative amount of the final product N-glycoform for each reaction in the following experiments.
# (§2) Measurements of KM and Vmax for SCT-oxa. Serial dilutions with a total volume of 10 μL were prepared with a gradient of SCT-oxa concentrations and a constant deglycosylated antibody concentration mixed in PBS, pH 7.4. Each reaction was initiated by adding 1μμL, of Endo-S/S2 mutants with a concentration of 0.1 mg/M1 and the reaction was conducted at 30° C. The concentrations of SCT-oxa were within a range from 6.25 μM to 400 μM. For each reaction, three aliquots were taken at t=1, 2 and 3 min and immediately quenched in 100 μL 0.1% formic acid. The quenched reaction samples were then characterized by ESI-MS, and the concentration of product in each mixture was calculated using the normalization factor, as shown above. A linear progression curve was confirmed for each reaction by sampling at multiple early time points and plotting them in the same graph, which emphasized that the V0 measured indeed represents the initial rate of each reaction. The KM and Vmax were measured by fitting the initial velocity against the SCT-oxa concentration using the GraphPad Prism7 program. The experiments were conducts in triplicate to determine the error in these measurements.
# The KM and Vmax values of both Endo-S and Endo-S2 mutants for the deglycosylated antibody substrate were measured in a similar fashion as to those for SCT-Oxa. In the serial reactions, the concentrations of antibody range from 0.313 μM to 20 μM, whereas the SCT-Oxa concentration was fixed at 400 μM. A similar control reaction was also performed for each concentration to monitor the non-enzymatic side reactions.
# deglycosylated rituximab [2] = assay: Transglycosylation activity assay of Endo-S and D233 mutants, LC-ESI-MS; details: for Transglycosylation Activity: deglycosylated rituximab 10.0 mg/mL, SCT-Oxa 1.38 mM (20 eq), enzyme 0.01 mg/mL, PBS pH 7.4, 30° C., duplicate; for Transglycosylation/Hydrolysis Ratio T/H: ratio of transglycosylation to hydrolysis activity, Table 1
# Method: (§3) The hydrolytic activity of the mutants generated was evaluated using rituximab as the substrate, and the transglycosylation activity was evaluated using the sugar oxazoline and the deglycosylated rituximab as the donor and acceptor substrates, respectively (Scheme 1).
# (§4) The LC-MS characterization of different antibody glycoforms was conducted on an Exactive Plus Orbitrap instrument (Thermo Scientific). The intact antibody sample was analyzed with a Waters XBridge™ BEH300 C4 column (3.5 μm, 2.1×50 mm). The program includes a 9 min linear gradient of 5-90% MeCN containing 0.1% formic acid at a flow rate of 0.4 mL/min. The original mass data were processed through deconvolution and integration through MagTran Software (Amgen).
# as §1
# (§5) The hydrolytic activity of each Endo-S mutants and the wild-type (0.01 mg/mL) was assayed in PBS (pH 7.4, 10 μl) at 30° C. with synthetic biantennary sialo-complex-type rituximab (1.0 mg/mL, 6.9 μM) as the starting material. Each reaction was terminated at 5 min and an aliquot was taken from the reaction mixture and dissolved in 0.1% formic acid. The relative quantity of the hydrolysis product was calculated through deconvolution and integration of the selected MS peaks. The experimental details of product quantification using LC-MS are illustrated below. The transglycosylation activity of Endo-S was measured in a similar fashion: deglycosylated Rituximab (10.0 mg/mL, 69 μM) was incubated with SCT-Oxa (1.38 mM, 20 eq) under catalysis of Endo-S enzymes (0.01 mg/mL) under the same condition as hydrolysis. The transglycosylation product SCT-Rituximab was analyzed as mentioned above. Both functional assays were repeated twice for each mutant and the wild-type, and the average activity was recorded
# rituximab = assay: Hydrolysis activity assay of Endo-S and D233 mutants, LC-ESI-MS; details: for Specific Hydrolysis Activity: rituximab 1.0 mg/mL as substrate, enzyme 0.01 mg/mL, PBS pH 7.4, 30° C., 5 min, duplicate
# Method: as §3, §4, §1, §5
# [3] = Kinetic measurements (KM, Vmax) of Endo-S/Endo-S2 mutants for SCT-Oxa; details: for Km / kcat: Endo-S mutants, donor substrate SCT-Oxa, PBS pH 7.4, 30° C.
# Method: Using a sialylated glycan oxazoline (SCT-Oxa) as the donor and the deglycosylated rituximab as the acceptor substrate, we measured the kinetic parameters of the enzyme catalyzed glycosylation were measured. A mass spectrometry-based approach with an internal standard was used to estimate the product formation.^31-33.
# as §1
# as §2, with “A linear progression curve was confirmed for each reaction by sampling at multiple early time points and plotting them in the same graph, which emphasized that the V0 measured indeed represents the initial rate of each reaction.” left out
# deglycosylated rituximab [4] = assay: Time-course comparison of transglycosylation with SCT-Oxazoline monitored by LC-ESI-MS (FIG. 1); details: D233M, D233Q, D233A compared with glycan oxazoline under same conditions
# Excerpt: The data sets presented here are representative of three independent experiments.
# The parallel reactions were monitored by LC-ESI-MS (FIG. 1).
# [5] = Endo-S mutants, acceptor substrate deglycosylated rituximab, SCT-Oxa fixed at 400 μM
Molecule,substrate affinity for the deglycosylated antibody (in words) (deglycosylated rituximab [1]; Asp-to-Met versus Asp-to-Ala mutant),Km (deglycosylated rituximab [1]; [5]) [µM],kcat (deglycosylated rituximab [1]; [5]) [s⁻¹],"Km (deglycosylated rituximab [1]; Endo-S mutants, acceptor substrate deglycosylated rituximab, SCT-Oxa fixed at 400 μM, listed as D233M) [µM]",enhanced synthetic efficiency (T/H) over D233A (deglycosylated rituximab [2]; based on Table 1) [fold],enhanced synthetic efficiency (T/H) over D233Q (deglycosylated rituximab [2]; based on Table 1),transglycosylation activity (in words) (deglycosylated rituximab [2]; biantennary complex-type glycan oxazoline to deglycosylated rituximab),Transglycosylation Activity (deglycosylated rituximab [2]),Transglycosylation/Hydrolysis Ratio T/H (deglycosylated rituximab [2]),"overall efficiency for glycoform synthesis (T/H, in words) (deglycosylated rituximab [2]; ratio of transglycosylation/hydrolysis)",Specific Hydrolysis Activity (rituximab),"hydrolysis activity (in words) (rituximab; rituximab as substrate, compared with wild type Endo-S and other mutants)",Km [3] [µM],kcat [3] [s⁻¹],increase in kcat/KM over Endo-S D233A ([3]; SCT-Oxa) [fold],increase in turnover (kcat) over D233A ([3]; SCT-Oxa),reduced affinity (KM) versus D233A ([3]; SCT-Oxa),transglycosylation efficiency in time-course (in words) (deglycosylated rituximab [4])
B1,much higher substrate affinity than the D233A mutant,30.2 ± 7.21,0.0922 ± 0.0318,30,~8,approximately 3 fold,most significant transglycosylation activities; also recorded: relatively high transglycosylation activity,2.71 100*(μmol/min/mg),135.50,highest overall synthetic efficiency,0.02 100*(μmol/min/mg),remarkably low residual hydrolysis activity,195 ± 7.21,0.0832 ± 0.0152,3,approximately 4 fold,less than 2 fold,"more efficient than the previously identified mutants, D233A and D233Q"
B2,,> 200,,,,,,1.06 100*(μmol/min/mg),17.67,,0.06 100*(μmol/min/mg),,87.9 ± 10.1,0.0223 ± 0.00317,,,,
B3,,,,,,,,0.98 100*(μmol/min/mg),19.60,,0.05 100*(μmol/min/mg),,,,,,,
